Experimental data reported in the supplement of paper PMC10126150.
± gives the standard deviation of the averaged measurements.

Test system: ATP
Test: switch fluorescence ratio, 500 uM ATP over buffer (Cy3 cluster intensity, sum of 5 cycles each) (fold (ratio)); higher = stronger signal-on switching upon ATP binding; sequences stand for … in TCGTCGGCAGCGTCAGATGTGTATAAGAGACAGTTTTTTTTTTTTTTTTTTTTTTTTT…TC
Conditions: aptamer strand: ATP DNA aptamer (quencher-CACCTGGGGGAGTATTGCGGAGGAAGG + anchor), 100 nM annealed; ATP concentration: 500 uM
Method in brief: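 Between each of five buffer/ATP cycles, the flow-cell was stripped with NaOH and re-annealed. Each cycle imaged Cy3-labelled switching-strand clusters, annealed to 100 nM quencher-labelled ATP aptamer on a modified Illumina MiSeq flow-cell, first in selection buffer and then after 15 min with 500 uM ATP at 22 °C. The fluorescence ratio is summed target-cycle over summed buffer-cycle Cy3 intensity per cluster, averaged per switch-domain sequence, with clusters outside 100-1000 RFU excluded.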
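Further: ATP exposure 15 min at 22 °C before imaging.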

With GGTGTGCTGT the switch fluorescence ratio was 0.957 ± 0.031.
Sequence GGTGTGGAGG has a switch fluorescence ratio of 1.021 ± 0.0047.
GGTGTGGATC gave a switch fluorescence ratio of 1.021 ± 0.0029.
GGTGTGGCGT showed a switch fluorescence ratio of 1 ± 0.018.
For GGTGTGGGGG, the switch fluorescence ratio was 1.01 ± 0.04.
GGTGTGTCGT gave a switch fluorescence ratio of 1.02 ± 0.017.
Sequence GGTGTTAGG has a switch fluorescence ratio of 1 ± 0.016.
GGTGTTAGTC was tested, and the switch fluorescence ratio was 1.02 ± 0.036.
In the case of GGTGTTCACT, the switch fluorescence ratio is reported as 0.995 ± 0.019.
GGTGTTGGAC was tested, and the switch fluorescence ratio was 0.997 ± 0.019.
With GGTGTTGGG the switch fluorescence ratio was 1.01 ± 0.019.
GGTGTTTATC showed a switch fluorescence ratio of 1 ± 0.014.
For GGTGTTTCGT, the switch fluorescence ratio was 0.9735 ± 0.001.
GGTGTTTGGG showed a switch fluorescence ratio of 1 ± 0.039.
With GGTGTTTTTT the switch fluorescence ratio was 0.99 ± 0.011.
Work on GGTTAAAGCG yielded a switch fluorescence ratio of 1.02 ± 0.013.
With GGTTAAAGGT the switch fluorescence ratio was 1.02 ± 0.026.
With GGTTAAGCGG the switch fluorescence ratio was 0.972 ± 0.021.
With GGTTAAGGCA the switch fluorescence ratio was 1.022 ± 0.0034.
GGTTAAGGGT showed a switch fluorescence ratio of 0.9892 ± 0.0056.
For GGTTAATTGT, the switch fluorescence ratio was 0.993 ± 0.033.
Work on GGTTACGAAG yielded a switch fluorescence ratio of 1.01 ± 0.044.
GGTTACTGAG showed a switch fluorescence ratio of 0.98 ± 0.018.
GGTTAGAACG showed a switch fluorescence ratio of 1.02 ± 0.06.
GGTTAGGAGT showed a switch fluorescence ratio of 0.99 ± 0.0081.
GGTTAGGCGC showed a switch fluorescence ratio of 0.993 ± 0.012.
With GGTTAGGGG the switch fluorescence ratio was 0.99 ± 0.028.
GGTTAGTTGG was tested, and the switch fluorescence ratio was 0.978 ± 0.027.
Sequence GGTTATAATG has a switch fluorescence ratio of 1.02 ± 0.012.
GGTTATAGAC was tested, and the switch fluorescence ratio was 0.994 ± 0.012.
For GGTTATCTTT, the switch fluorescence ratio was 0.982 ± 0.047.
In the case of GGTTATGGG, the switch fluorescence ratio is reported as 0.993 ± 0.038.
With GGTTATTTGA the switch fluorescence ratio was 0.974 ± 0.028.
For GGTTCAGCGG, the switch fluorescence ratio was 0.959 ± 0.035.
GGTTCAGCGT was tested, and the switch fluorescence ratio was 0.984 ± 0.015.
Sequence GGTTCAGGGA has a switch fluorescence ratio of 0.977 ± 0.0099.
GGTTCAGGTG gave a switch fluorescence ratio of 3.38 ± 0.34.
Work on GGTTCCAAGC yielded a switch fluorescence ratio of 1.06 ± 0.04.
Work on GGTTCGACTG yielded a switch fluorescence ratio of 0.951 ± 0.046.
GGTTCGGGTG showed a switch fluorescence ratio of 1.075 ± 0.0041.
Sequence GGTTCGTATT has a switch fluorescence ratio of 0.975 ± 0.038.
Work on GGTTCTATTT yielded a switch fluorescence ratio of 1.03 ± 0.016.
With GGTTCTTCGG the switch fluorescence ratio was 0.9938 ± 0.0066.
GGTTCTTTAG gave a switch fluorescence ratio of 1.015 ± 0.0033.
With GGTTGAAAAA the switch fluorescence ratio was 0.985 ± 0.053.
With GGTTGAAAAG the switch fluorescence ratio was 0.979 ± 0.015.
Sequence GGTTGAAGAG has a switch fluorescence ratio of 0.955 ± 0.011.
For GGTTGACCCC, the switch fluorescence ratio was 0.978 ± 0.027.
Sequence GGTTGACGCA has a switch fluorescence ratio of 1.01 ± 0.03.
With GGTTGACTTG the switch fluorescence ratio was 1.01 ± 0.059.
For GGTTGAGGGC, the switch fluorescence ratio was 1 ± 0.02.
GGTTGATACG showed a switch fluorescence ratio of 0.959 ± 0.026.
With GGTTGCGGTG the switch fluorescence ratio was 0.94 ± 0.083.
GGTTGGAAAT showed a switch fluorescence ratio of 0.99 ± 0.06.
With GGTTGGACAG the switch fluorescence ratio was 0.988 ± 0.011.
GGTTGGAGTG was tested, and the switch fluorescence ratio was 0.963 ± 0.017.
GGTTGGAGTT gave a switch fluorescence ratio of 0.984 ± 0.0049.
GGTTGGATGG showed a switch fluorescence ratio of 0.9995 ± 0.0007.
For GGTTGGGGAC, the switch fluorescence ratio was 0.971 ± 0.022.
GGTTGGTCTA was tested, and the switch fluorescence ratio was 0.979 ± 0.028.
GGTTGGTTCT gave a switch fluorescence ratio of 1.02 ± 0.078.
With GGTTGTCATG the switch fluorescence ratio was 0.967 ± 0.032.
GGTTGTGAGT was tested, and the switch fluorescence ratio was 0.993 ± 0.02.
GGTTGTGGGG gave a switch fluorescence ratio of 0.998 ± 0.035.
In the case of GGTTGTTTCG, the switch fluorescence ratio is reported as 0.969 ± 0.038.
GGTTTAAGGT was tested, and the switch fluorescence ratio was 1.01 ± 0.02.
With GGTTTAATTC the switch fluorescence ratio was 1.01 ± 0.012.
With GGTTTACCGG the switch fluorescence ratio was 0.987 ± 0.039.
GGTTTAGGGC showed a switch fluorescence ratio of 0.992 ± 0.066.
GGTTTAGTGG was tested, and the switch fluorescence ratio was 1 ± 0.031.
GGTTTATAAA showed a switch fluorescence ratio of 0.971 ± 0.051.
GGTTTATGGG showed a switch fluorescence ratio of 0.975 ± 0.037.
GGTTTATTTG showed a switch fluorescence ratio of 1.01 ± 0.016.
GGTTTCGATA was tested, and the switch fluorescence ratio was 0.96836 ± 1.5e-05.
In the case of GGTTTCGTCC, the switch fluorescence ratio is reported as 1.02 ± 0.0023.
GGTTTCTACA was tested, and the switch fluorescence ratio was 1 ± 0.034.
In the case of GGTTTCTTAG, the switch fluorescence ratio is reported as 0.98 ± 0.018.
GGTTTGAAAT gave a switch fluorescence ratio of 1.04 ± 0.051.
With GGTTTGAGGA the switch fluorescence ratio was 0.971 ± 0.012.
GGTTTGCGTG gave a switch fluorescence ratio of 0.988 ± 0.0043.
Sequence GGTTTGCTGA has a switch fluorescence ratio of 1.01 ± 0.043.
Sequence GGTTTGGACG has a switch fluorescence ratio of 0.981 ± 0.037.
GGTTTGGGCA was tested, and the switch fluorescence ratio was 1.02 ± 0.013.
In the case of GGTTTGGTAT, the switch fluorescence ratio is reported as 0.99 ± 0.021.
GGTTTGGTCA showed a switch fluorescence ratio of 1 ± 0.0055.
GGTTTGGTTA was tested, and the switch fluorescence ratio was 1 ± 0.027.
With GGTTTGTGGG the switch fluorescence ratio was 0.968 ± 0.013.
Sequence GGTTTTAGAT has a switch fluorescence ratio of 0.9977 ± 0.0072.
In the case of GGTTTTATAC, the switch fluorescence ratio is reported as 1.04 ± 0.02.
For GGTTTTCAGT, the switch fluorescence ratio was 1.03 ± 0.045.
Sequence GGTTTTCCAG has a switch fluorescence ratio of 0.946 ± 0.063.
In the case of GGTTTTGCCA, the switch fluorescence ratio is reported as 0.995 ± 0.034.
GGTTTTTTGT gave a switch fluorescence ratio of 0.992 ± 0.017.
Work on GTAAAAATGG yielded a switch fluorescence ratio of 1.05 ± 0.12.
GTAAAAGAAG gave a switch fluorescence ratio of 0.964 ± 0.02.
Work on GTAAAAGGCG yielded a switch fluorescence ratio of 1 ± 0.024.
Work on GTAAAAGTTT yielded a switch fluorescence ratio of 0.979 ± 0.01.
With GTAAAATGTT the switch fluorescence ratio was 1.03 ± 0.035.
GTAAAGAGTT gave a switch fluorescence ratio of 0.992 ± 0.011.
In the case of GTAAAGGGGA, the switch fluorescence ratio is reported as 1.03 ± 0.044.
